Measurements as given in patent publication US20210347832.

Tests used:
[1] = tested on: T1, C16-CathS-SIINFEKL
T1 sequence: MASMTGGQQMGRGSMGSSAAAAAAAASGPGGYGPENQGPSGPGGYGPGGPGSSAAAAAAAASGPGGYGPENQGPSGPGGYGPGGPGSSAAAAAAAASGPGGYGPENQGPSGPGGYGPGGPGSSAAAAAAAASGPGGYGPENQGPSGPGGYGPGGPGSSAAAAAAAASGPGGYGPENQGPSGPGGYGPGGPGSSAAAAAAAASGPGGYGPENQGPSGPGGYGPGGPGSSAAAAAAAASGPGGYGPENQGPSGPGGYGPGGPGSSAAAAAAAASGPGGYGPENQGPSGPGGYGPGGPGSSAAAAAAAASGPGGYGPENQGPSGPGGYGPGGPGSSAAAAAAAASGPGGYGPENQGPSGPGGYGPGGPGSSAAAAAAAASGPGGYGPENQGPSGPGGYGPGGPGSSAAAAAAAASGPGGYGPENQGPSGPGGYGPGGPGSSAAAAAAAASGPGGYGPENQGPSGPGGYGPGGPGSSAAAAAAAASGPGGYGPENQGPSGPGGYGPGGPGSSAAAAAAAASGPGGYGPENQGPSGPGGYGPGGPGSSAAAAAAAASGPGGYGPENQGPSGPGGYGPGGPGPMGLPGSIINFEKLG

[2] = tested on: T2, C16-CathB-SIINFEKL
T2 sequence: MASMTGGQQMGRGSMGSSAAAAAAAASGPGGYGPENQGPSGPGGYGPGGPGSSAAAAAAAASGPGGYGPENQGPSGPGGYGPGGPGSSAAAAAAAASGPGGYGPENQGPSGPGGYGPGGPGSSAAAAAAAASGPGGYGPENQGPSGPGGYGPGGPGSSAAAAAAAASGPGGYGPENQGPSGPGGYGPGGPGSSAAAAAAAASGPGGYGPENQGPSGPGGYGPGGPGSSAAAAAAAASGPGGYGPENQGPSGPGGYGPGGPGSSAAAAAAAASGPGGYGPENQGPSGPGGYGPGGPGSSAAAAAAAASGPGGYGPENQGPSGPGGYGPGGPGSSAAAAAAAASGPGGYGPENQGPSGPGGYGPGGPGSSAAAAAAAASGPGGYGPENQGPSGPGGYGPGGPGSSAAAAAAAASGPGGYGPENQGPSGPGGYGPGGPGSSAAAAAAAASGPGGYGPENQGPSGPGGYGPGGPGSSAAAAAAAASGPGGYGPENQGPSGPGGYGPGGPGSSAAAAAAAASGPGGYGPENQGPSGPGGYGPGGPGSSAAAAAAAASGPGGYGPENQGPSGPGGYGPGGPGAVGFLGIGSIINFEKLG

Substance | release of cleaved SIINFEKL peptide from particles (RP-HPLC, 1-96 h) [1] | release of cleaved SIINFEKL peptide from particles (RP-HPLC, 1-96 h) [2] | release of cleaved SIINFEKL peptide from particles (RP-HPLC, 96 h) [1] | release of cleaved SIINFEKL peptide from particles (RP-HPLC, 96 h) [2]
cathepsin S enzyme | Cathepsin S enzyme shows the better cleavage of SIINFEKL (SEQ ID NO: 11) peptides from both hybrid polypeptide particles | Cathepsin S also cleaves SIINFEKL (SEQ ID NO: 11) peptides from particles designed for cathepsin B release, but slower and in a lesser extent |  | 
cathepsin B enzyme |  |  | Cathepsin S enzyme shows the better cleavage of SIINFEKL (SEQ ID NO: 11) peptides from both C16 hybrid protein particles than cathepsin B | Cathepsin S enzyme shows the better cleavage of SIINFEKL (SEQ ID NO: 11) peptides from both C16 hybrid protein particles than cathepsin B
